# Values joined by “and” are separate entries in the source; they are usually repeats but may differ in a detail not shown here. Equal values may be shown once.
# What was measured:
# [1] = in DCE; cited from earlier work
# bone = type: in vivo, BALB/c mice
# Description: FIG. 3A illustrates a supine position, top CH-RGD, bottom CH-RAD 3 h post-injection. 22 nmol CH-RGD or CH-RAD was intravenously injected into 20-25 g hairless BALB/c mice (n=6, 3 males, 3 female). NIR-II imaging (200 ms, 1150LP, 808 nm 140 mW/cm^2 laser excitation) was taken at different time points post-injection (post-injection).
# (§1) Teen-week old BALB/c mice (n=3 male and 3 female per group) were obtained from Charles River for bone imaging studies, teen-week old C57BL/6 female mice (n=4 per group) were obtained from Charles River for brain vessel studies, teen-week old NU/NU female mice (n=4 per group) were obtained from Charles River for leg vessel studies, teen-week old BALB/c male mice (n=4 per group) were obtained from Charles River and housed for another 42 weeks for lymph node and lymphatic vessel studies, eight-week old female NU/NU mice (n=3 per group) were obtained from Charles River for tumor targeting studies. Before vessel or tumor imaging, all mice were anaesthetized in a rodent anesthesia machine with 2 l min^−1 O2 gas mixed with 3% Isoflurane. Tail vein injection of contrast agents were carried with a catheter and synchronized with a camera that started continuous image acquisition simultaneously. The IV injected dose was a 200 μL bolus in a 1×PBS solution at specified concentrations. The ID injected dose was a 50 μL bolus in a 1×PBS solution at specified concentrations. During the time course of imaging the mouse was kept anaesthetized by a nose cone delivering 2 l min^−1 02 gas mixed with 3% isoflurane. The sample sizes of mice were selected based on previously reported studies. Mice were randomly selected from cages for all experiments. No blinding was performed.
# (§2) Images were processed with ImageJ.
# U87MG tumor [2] = experiment: Subcutaneous U87MG tumor imaging, IV vs ID
# Description: (§3) Then NIR-II (200 ms, 1000LP) or NIR-I (200 ms, 814-851BP) images were taken at different time points.
# (§4) Nude mice were purchased from Charles River. U87MG cells were cultured in Dulbecco's modified Eagle medium containing high glucose (Gibco), which were supplemented with 10% fetal bovine serum and 1% penicillin-streptomycin. The cell was expanded in tissue culture dish and kept in a humidified atmosphere of 5% CO2 at 37° C. The medium was changed every other day. A confluent monolayer was detached with 0.5% trypsin, and dissociated into a single-cell suspension for inoculation. When the mice reached eight weeks in age, mice were inoculated with 1×10^6 U87MG cells on the right front shoulder. The tumor was allowed to grow for approximately 30 days before imaging, at which point they were approximately 30-120 mm^3 in volume.
# (§5) Mice were placed on a stage with a venous catheter for IV injection of contrast and imaging agents. 0.5 mL syringe was used directly for ID injection. All NIR-II images were collected on a 640×512 pixel two-dimensional InGaAs array (Princeton Instruments, NIRvana TE 640). The excitation laser was an 808 nm laser diode at a power density of approximately 140 mW cm^−2. Emission was typically collected with 1000, 1050, 1100, 1150, 1200, 1250, 1300, 1350, 1400 nm LP filter (Thorlabs). 50 mm and 75 mm prime lens (Edmund optics) was used to obtain magnifications ranging of 1× (whole body) to 2.5× (high magnification) magnification by changing the relative position of camera, lens and animals. A binning of 1 and a variable exposure time were used for the InGaAs camera (640×512 pixel) to capture images in the NIR-II window. Images were processed with ImageJ.
# (§6) All NIR-I images were collected A 1,344×1,024-pixel Hamamatsu silicon CCD detector (Hamamatsu C8484-03G02; pixel number: 1,344×1,024; readout noise: approximately 7 electron r.m.s.; dark current: 0.01 electrons per second per pixel) with an 814-851 nm bond pass filter (Edmund, #84-107). […]
# U87MG tumor [3] = details: mouse, in vivo, iv
# Description: as §3, §4, §5, §6
# blood vessels = experiment: Blood vessel imaging (brain, hind limb); type: in vivo, mice; details: NIR-I imaging
# Description: FIGS. 4A-4W show blood vessel, lymphatic vessel, and lymph node imaging with CH-RGD (NIR-II), ICG and IR800-RGD (NIR-I). 15 nmol CH-RGD, CH-PEG, ICG, IR800-RGD were IV injected into hairless C57BL/6 mice (FIGS. 4A-4C) or nude mice (FIGS. 4D and 4E). NIR-II (FIGS. 4A, 4B, 4D, 1000 ms, 1350LP) and NIR-I imaging (FIGS. 4C, 4E, 200 ms, 814-851BP) was taken 10 min post-injection. FIGS. 4A-4C, C57BL/6 mice brain vessel images.
# as §1, with “The IV injected dose was a 200 μL bolus in a 1×PBS solution at specified concentrations. The ID injected dose was a 50 μL bolus in a 1×PBS solution at specified concentrations. During the time course of imaging the mouse was kept anaesthetized by a nose cone delivering 2 l min^−1 02 gas mixed with 3% isoflurane. The sample sizes of mice were selected based on previously reported studies. Mice were randomly selected from cages for all experiments. No blinding was performed.” left out
# [4] = literature value; cited from earlier work
# [5] = tested on: lymphatic vessels and lymph nodes; experiment: Lymphatic vessel and lymph node imaging after ID injection; type: in vivo, BALB/c mice
# Description: FIGS. 4F and 4G show cross-sectional fluorescence intensity profiles taken along red-dashed lines in (FIGS. 4D and 4E). Gaussian fits to the profiles are shown in red dashed curves. Vessel width measurements were taken from Gaussian curves. Lymphatic vessels and lymph node imaging: 3 nmol CH-RGD (FIGS. 4H-4J, 4Q, 4Y), ICG (FIGS. 4K and 4R) and IR800-RGD(s) ID into BALB/c mice (n=4 per probe). NIR-II (50 ms, 1100LP)/NIR-I (100 ms, 814-851BP) imaging was taken 1 h (FIGS. 4H-4J)/(FIG. 4K), 5 h (FIG. 4Q)/FIGS. 4R and 4S), 30 d (FIG. 4U) post ID, injection site (FIG. 4I).
# IR800-RGD (3 nmol) was injected intradermally into hair-removed BALB/c mouse (n=4 per probe, male, 1 years old, weight approximately 42 g) tail base. NIR-1 imaging (100 ms, 814 approximately 851 bandpass) was taken 1 h, 3 h, 5 h post-injection. Fluorescent signal appears in mice bladder from 1 h post-injection.
# as §1, with “The sample sizes of mice were selected based on previously reported studies. Mice were randomly selected from cages for all experiments. No blinding was performed.” left out
# [6] = tested on: orthotopic bone tumors (143B); experiment: Orthotopic 143B osteosarcoma imaging; type: in vivo, nude mice; details: ID injection
# Description: Eight-week old female nude mice (Charles River) were anaesthetized using 2.0% isoflurane and positioned on a heating pad (42° C.). The shoulder was cleaned with 70% ethanol and betadine. 1×10^6 143B cells were first injected subcutaneously into the shoulder mice and the tumor allowed to grow to a diameter 5-8 mm solid tumor. The tumors were surgical resected and cut into 1×1×1 mm^3 pieces.
# The right tibia of 8-week old NU/NU mice was opened in the central part by drilling with a dental drill for a 0.5 mm diameter hole. One tumor fragment was insert into the hole and contact with the bone marrow. Then the surgical wound was sutured. Mice were observed daily for tumor growth. Palpation, micro CT and 3T MRI were used to monitor the tumor growth. The mouse was used for imaging experiment, when the tumor size had reached to 3-5 mm diameter.
# [7] = Blood half-life measurement by NIR-II blood signal; type: in vivo; details: mouse, BALB/c mice
# Description: Arrows indicate the blood vessel signal.
# Half-life: approximately 776 min.
# [8] = In vitro serum stability in FBS; type: in vitro ADME; details: 37° C.
# Description: Fetal Bovine Serum (FBS, Gibco® Catalog #26140) was used to dilute the CH-RGD PBS stock solution into 2 mL, 10 μM mixture solution. And the mixture was incubated at 37° C. in a cell culture incubator for one month. At each designated time point, 200 μL serum mixture were collected for DLS and TEM analysis.
# NIH/3T3 cells = experiment: MTT cytotoxicity of CH-RGD NPs; type: cell-based
# Description: The CH-RGD NPs toxicity was determined in vitro with a MTT assay (3-(4,5-dimethylthiazol-2-yl)-2,5-diphenyl tetrazolium bromide, Sigma-Aldrich, St. Louis, Mo.) on NIH/3T3 cells. Approximately 5,000 cells were incubated per well with 200 μL of DMEM growth medium and serially diluted CH-RGD NPs solution (n=6 for each concentration). The cells were kept at 37° C. in a humidified atmosphere containing 5% CO2 for 48 h in the presence of CH-RGD NPs at different concentrations. Immediately before addition of 20 μl of MTT (5 mg/mL), a colorimetric indicator of cell viability, the CH-RGD NPs-spiked medium was removed from each well plate and replaced with 180 μL fresh medium. After 4 h, the medium was carefully removed, 100 μL DMSO was added. Shaking for 10 mins, the color change was quantified using a microplate reader (TECAN Infinite M100) and taking absorbance readings at 570 nm with a reference wavelength of 650 nm. Cell viability was plotted as a fraction of the absorbance of control wells incubated without CH-RGD NPs.
# [9] = Photostability under continuous 808 nm laser excitation; type: physicochemical; details: 45 min continuous laser excitation (0.33 W/cm^2, 808 nm) in water, pH 7.4 PBS, FBS
# From the text: The NIR fluorescence spectrum was taken using a home-built NIR spectroscopy setup. The excitation source was a 0.25 W 808 nm laser. The excitation laser was filtered with a combination of an 850/1,000/1,100/1,200/1,300 nm short-pass filters (Thorlabs). The excitation light was allowed to pass through the solution sample in a 1-cm-path-length cuvette (Starna Cells) and the resulting emission filtered through a 900 nm long-pass filter (Thorlabs) to reject the incident excitation laser light. The emitted light was directed into a spectrometer (Princeton Instruments, IsoPlane 160) equipped with a two-dimensional InGaAs array (Princeton Instruments, NIRvana TE 640). Spectra were corrected post-collection to account for the sensitivity of the detector and extinction feature of the filter. Photostability was determined by spiking CH-RGD NPs into FBS, 1× pH 7.4 PBS and DI water, and exposing it in a 1-cm-path-length cuvette (Starna Cells) to continuous 808 nm excitation at a power density of 0.33 W cm^−2 and taking images every 5 mins for approximately 45 min. Stability was determined by measuring the ROI and comparing the fluorescence intensity against the starting fluorescence signal.
# [10] = Liver signal decay after IV injection; type: in vivo, BALB/c mice; details: BALB/c, mouse, IV 10 nmol, read-out: elimination half-life from liver signal decay curve (converted)
# From the text: IV inject 10 nmol CH-RGD NPs into BALB/c mice (n=5). NIR-II fluorescent imaging (10001p, 200 ms) of mice in a supine position were taken 1, 2, 3, 4, 8, 12, 32, 60 days (d) post injection. Of 5 mice, 4 gave the strongest signal 2 days post-injection. One mouse gave it 1 day post-injection. Each liver signal was normalized with the 2 days post-injection intensity. GraphPad Prism 6 one phase decay analysis was used to get the half-life approximately 7.65 d.
# [11] = tested on: metastatic tail bone tumor (143B); experiment: Metastatic 143B bone tumor imaging; type: in vivo, mice; details: ID injection into left hind limb
# Description: When the orthotopic 143B tumor grows to 3-4 mm diameter, surgery was performed to resect the tumor. Tumor was cut into pieces, and the visible tumor fragments were taken out. Then the surgical wound was sutured. Although the metastasis was not frequently occurring in mice tail, mice tail metastasis is the easiest diagnostic metastasis. By visual inspection, 143B tail metastasis mouse was chosen out. The mouse was used for imaging experiment when the tumor size reach to approximately 1 mm diameter.
# U87MG tumor [12] = experiment: Double subcutaneous U87MG tumor imaging; type: in vivo, nude mice; details: IV 10 nmol
# Description: FIG. 5A is a color photograph of a nude mouse with double xenograft brain tumor (U87MG) located on the left (approximately 1 mm) and right ([…]) shoulder. Intravenous injection of CH-RGD 10 nmol into the double tumor nude mice (n=3). NIR-II imaging (50 ms, 1000LP) at 3 days post-injection was taken at prone (FIG. 5B), right (FIG. 5C) and left (FIG. 5D) lateral decubitus.
# The first right shoulder big tumor implantation is the same as above description. The difference is allowed the tumor grow for 2 to 3 weeks. When the right tumor diameter (ø) was between about 1 to 2 mm, 1×10^6 U87MG cells were injected into the mice left shoulder. After about 1 to 2 weeks, when the left shoulder tumor had grown to a diameter of about 1 mm and the right shoulder tumor was approximately 6 mm in diameter, the mouse was used for imaging.
# as §2
compound,measurement,setting,value
ClC1=C(/C=C/c2cc(-c3ccccc3)[s+]c3ccccc23)CCC/C1=C\C=C1/C=C(c2ccccc2)Sc2ccccc21.[O-][Cl+3]([O-])([O-])[O-] [IR-26],quantum yield of reference fluorophore,[1],0.05%
CH-c(RADyk) [CH-RAD],bone accumulation,bone; after 6 h post-injection,no dramatic accumulation in bone
same,"final concentration in bone by fluorescent intensity, relative to CH-RGD NPs","bone; mouse, in vivo",about half that of CH-RGD NPs
same,mean tumor fluorescent intensity,U87MG tumor [2]; IV administration,22 k
same,ID versus IV injection comparison,"U87MG tumor [2]; mouse, in vivo, iv",better TBR through ID injection
same,time of maximum tumor fluorescence and TBR,U87MG tumor [3],1 days
"CC1(C)C(/C=C/C=C/C=C/C=C2\N(CCCCS(=O)(=O)O)c3ccc4ccccc4c3C2(C)C)=[N+](CCCCS(=O)(=O)[O-])c2ccc3ccccc3c21 [ICG, indocyanine green]",blood vessel detection,blood vessels,only the largest brain blood vessels could be detected
same,blood half-life,[4],3 to 5 min
same,"SBR, subiliac lymph node",[5]; 5 h after ID injection,approximately 3
same,"FWHM, subiliac lymph node","[5]; 5 h after ID injection, Gaussian fitting",2.8 mm and 2.803 mm
same,width of lymphatic vessels detected,[5]; ID injection,greater than 400 μm
"N=C(N)NCCC[C@@H]1NC(=O)[C@H](CCCCNC(=O)CCc2ccc(N(c3ccc(CCC(=O)O)cc3)c3ccc(-c4c5c(c(-c6ccc(N(c7ccc(CCC(=O)O)cc7)c7ccc(CCC(=O)O)cc7)cc6)c6nsnc46)N=S=N5)cc3)cc2)NC(=O)[C@@H](Cc2ccc(O)cc2)NC(=O)[C@H](CC(=O)O)NC(=O)CNC1=O [CH-RGD, CH-c(RGDyk)]",time tumor still identifiable,[6],7 days
same,time BAT could be visualized,"bone; mouse, in vivo",10 days
same,"time bone signal still visualized, ex-vivo imaging","bone; mouse, in vivo",up to 45 days
same,"time bone signal still visualized, in vivo imaging","bone; mouse, in vivo",3 days
same,half-life,[7],~776 min
same,time NPs stable in FBS before degrading into smaller NPs,[8],up to 2 weeks
same,toxicity,NIH/3T3 cells,No obvious toxicity
same,photostability,[9],remains stable
same,half-life,[10],~7.65 days
same,time tumors identified post-injection,[11],1 days
same,"time of peak fluorescence intensity, large tumor",U87MG tumor [12],4 days
same,"time tumor fluorescence detectable, smaller tumor",U87MG tumor [12]; approximately 1 mm tumor,4 h
same,"time tumor fluorescence detectable, larger tumor",U87MG tumor [12]; approximately 6 mm tumor,approximately 0.5 h

# Reference: patent US20200023081A1, “SELF-ASSEMBLING CYCLOPEPTIDE-DYE COMPOUNDS, FORMULATIONS THEREOF, AND USES THEREOF” (The Board of Trustees of the Leland Stanford Junior …, priority 2018, published 2020)
